Laboratory results as given in US20140134179A1 (published 2014).

What was measured:
[1] = target: human TEM8 on CHO cells (CHO-TEM8) (UniProt Q9H6X2 33-564); experiment: flow cytometry, inhibition of PA-FITC binding
mTEM8 = experiment: ELISA
[2] = target: T1, hTEM8(ED)-Fc fusion protein (UniProt Q9H6X2 33-321); experiment: ELISA
T1 chain: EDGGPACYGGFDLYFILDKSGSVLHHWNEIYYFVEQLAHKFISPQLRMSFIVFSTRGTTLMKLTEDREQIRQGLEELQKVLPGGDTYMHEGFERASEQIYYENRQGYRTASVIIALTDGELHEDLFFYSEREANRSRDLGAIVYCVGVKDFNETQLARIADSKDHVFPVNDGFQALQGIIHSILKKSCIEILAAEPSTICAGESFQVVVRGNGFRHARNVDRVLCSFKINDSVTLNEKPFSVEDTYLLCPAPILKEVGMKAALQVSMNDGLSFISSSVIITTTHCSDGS

B1: L3 Fab (Fab, V domains shown)
VH: QVQLQQSGPGLVKPSQTLSLTCAISGDSVSTNGAAWGWIRQSPGRGLEWLGRIYYRSKWYNDYAVSVKSRITINPDTSKNQFSLQLNSVTPEDTAVYYCARMPGGFLFDLWGQGTLVTVSS
VL: DIELTQPPSVSVAPGQTARISCSGDNIRSYYAHWYQQKPGQAPVLVIYGDSKRPSGIPERFSGSNSGNTATLTISGTQAEDEADYYCSSYASHDYVFGGGTKLTVLG
EC50 [1]: 0.0364 µg/mL

B2: L3 (Fab, V domains shown)
VH: B1 VH
VL: B1 VL
EC50 (mTEM8): 0.36 nM

B3: L2 Fab (Fab, V domains shown)
VH: QVQLKESGPALVKPTQTLTLTCTFSGFSLSTSGGGVSWIRQPPGKALEWLAHIYSNDDKSYSTSLKTRLTISKDTSKNQVVLTMTNMDPVDTATYYCARGGYFLDYWGQGTLVTVSS
VL: DIELTQPPSVSVAPGQTARISCSGDNIGGIYVHWYQQKPGQAPVLVIYADSKRPSGIPERFSGSNSGNTATLTISGTQAEDEADYYCQSYDITSLVFGGGTKLTVL
EC50 [1]: 0.0218 µg/mL

B4: L2 (Fab, V domains shown)
VH: B3 VH
VL: B3 VL
EC50 (mTEM8): 0.28 nM

B5: L1 (Fab, V domains shown)
VH: QVQLVESGGGLVQPGGSLRLSCAASGFTFNSYAMSWVRQAPGKGLEWVSLISSGSSTYYADSVKGRFTISRDNSKNTLYLQMNSLRAEDTAVYYCARAGFKFDNWGQGTLVTVSS
VL: DIELTQPPSVSVAPGQTARISCSGDSIPNYSVSWYQQKPGQAPVLVIYADSNRPSGIPERFSGSNSGNTATLTISGTQAEDEADYYCQSYDNTSPDLVFGGGTKLTVLG
EC50 (mTEM8): 0.21 nM

B6: L1 Fab (Fab, V domains shown)
VH: B5 VH
VL: B5 VL
EC50 [2]: 0.18 nM | EC50 [1]: 0.0342 µg/mL

B7: L5 (Fab, V domains shown)
VH: QVQLVESGGGLVQPGGSLRLSCAASGFTFNSYGLSWVRQAPGKGLEWVSNISSNGSYTYYADSVKGRFTISRDNSKNTLYLQMNSLRAEDTAVYYCARAGYGLFDVWGQGTLVTVSS
VL: DIELTQPPSVSVAPGQTARISCSGDKLREYYVHWYQQKPGQAPVLVIYGDNKRPSGIPERFSGSNSGNTATLTISGTQAEDEADYYCSSWAGSRSGTVFGGGTKLTVL
EC50 (mTEM8): 0.22 nM
